Data on four molecules can be found in paper doi:10.1101/2022.04.25.489347 (bioRxiv, 2022).

Data set [1] deals with T1, H2A/H2B dimer (UniProt P06897 1-130; P02281 1-126). In words: ITC. Background: In ITC the heat of successive injections is recorded.
Data set [2] deals with T2, H3/H4 tetramer (UniProt P84233 1-136; P62799 1-103). As to the kind of experiment: ITC.
Data set [3] concerns the target T1, H2A/H2B dimer. As to the kind of experiment: AUC.
The target in data set [4] is T2, H3/H4 tetramer. As to the kind of experiment: AUC.
Data set [5] deals with the molecule itself. In words: AUC.
Data set [6] deals with the molecule itself. As to the kind of experiment: crystal structure.

Broadly, the Kd is the constant that tells how readily two partners part at equilibrium. Low readings indicate higher affinity, high ones lower affinity. A word on the stoichiometry N: it is a count of units in the complex or per binding partner.

B1: AtFKBP43 (1-136) (domain or fragment, Arabidopsis thaliana, UniProt F4J9Q6 1-136, looked up)
chain: MAFWGVEVKPGKTFTLKNNEATGIRRLHLSQATLGHGTATNRSILQCNVGNKSPLLLCVLTPDKVDSCQLNLEFEETDEVIFSVIGPRSVHLTGYFLGRSTGFRPNDDESESFGEDIVDTDMEKGSSDDYDYSDSF
B1: the figures for the Kd in data set [1] and in data set [2] were 460 ± 30 nM and 610 ± 40 nM, respectively. Besides, the “stoichiometry N” value in data set [3] stood at 1; in data set [4], 1; in data set [5], 5.

B2: AtFKBP43 NTD (1-110) (domain or fragment, Arabidopsis thaliana, UniProt F4J9Q6 1-110, looked up)
chain: MAFWGVEVKPGKTFTLKNNEATGIRRLHLSQATLGHGTATNRSILQCNVGNKSPLLLCVLTPDKVDSCQLNLEFEETDEVIFSVIGPRSVHLTGYFLGRSTGFRPNDDES
With B2, in data set [6], the “stoichiometry N” value stood at 5.

B3: AtFKBP43 NTD (1-96) (domain or fragment, Arabidopsis thaliana, UniProt F4J9Q6 1-96, looked up)
chain: MAFWGVEVKPGKTFTLKNNEATGIRRLHLSQATLGHGTATNRSILQCNVGNKSPLLLCVLTPDKVDSCQLNLEFEETDEVIFSVIGPRSVHLTGYF
On to B3, for which, in data set [5], the “stoichiometry N” value was determined as 5.

B4: AtFKBP43 (1-164) (domain or fragment, Arabidopsis thaliana, UniProt F4J9Q6 1-164, looked up)
chain: MAFWGVEVKPGKTFTLKNNEATGIRRLHLSQATLGHGTATNRSILQCNVGNKSPLLLCVLTPDKVDSCQLNLEFEETDEVIFSVIGPRSVHLTGYFLGRSTGFRPNDDESESFGEDIVDTDMEKGSSDDYDYSDSFINDDDPAVRGSHVSSTDDDEISIKEMTA
Regarding B4, the Kd in data set [1] was 60 ± 6 nM; in data set [2] it was 18 ± 2 nM. For the same molecule, the “stoichiometry N” value in data set [3] is 1; in data set [4], 1; in data set [5] it was 5.
